Experimental data as given in publication PMC9045261.

Biological target: OXAVL02 (OXA-1089)
Assay: SEC-MALS; active SEC fractions dialyzed against PBS (Na2HPO4 10 mM, KH2PO4 1.8 mM, NaCl 137 mM, KCl 2.7 mM, pH 7.4); 100 uL at 0.5 to 1 mg/mL on Superdex 200 Increase 10/300; UV, MALS and refractive index detectors; monomer-dimer equilibrium

Substance: OXAVL02 (OXA-1089) (enzyme)
- stoichiometry N: 2
